Measured values published in IntAct's records for PubMed 21880730.

B1: Nectin-3 (Mus musculus), Q9JLB9 (parent)
chain: MARTPGPAPLCPGGGKAQLSSAFPPAAGLLLPAPTPPPLLLLLIPLLLFSRLCGALAGSIIVEPHVTAVWGKNVSLKCLIEVNETITQISWEKIHGKSTQTVAVHHPQYGFSVQGDYQGRVLFKNYSLNDATITLHNIGFSDSGKYICKAVTFPLGNAQSSTTVTVLVEPTVSLIKGPDSLIDGGNETVAAVCVAATGKPVAQIDWEGDLGEMESSTTSFPNETATIVSQYKLFPTRFARGRRITCVVKHPALEKDIRYSFILDIQYAPEVSVTGYDGNWFVGRKGVNLKCNADANPPPFKSVWSRLDGQWPDGLLASDNTLHFVHPLTVNYSGVYVCKVSNSLGQRSDQKVIYISDPPTTTTLQPTVQWHSSPADVQDIATEHKKLPFPLSTLATLKDDTIGTIIASVVGGALFLVLVSILAGVFCYRRRRTFRGDYFAKNYIPPSDMQKESQIDVLHQDELDSYPDSVKKENKNPVNNLIRKDYLEEPEKTQWNNVENLTRFERPMDYYEDLKMGMKFVSDERYNESEDGLVSHVDGSVISRREWYV

Variants of: B1
Details: with afad_rat Afdn

Row | effect of a mutation on the interaction | Variant
1 | decreasing interaction | F153L
